Data as given in patent US11419948B2, “Functionalized microgels with fibrin binding elements” (Georgia Tech Research Corporation, priority 2013, dated 2022).

B1: PLPs: ultra-low crosslinked pNIPAm-AAc microgels conjugated to fibrin-specific sdFv H6 (conjugate)
VH: QVQLLESGGGLVQPGGSLRLSCAASGDRFTHNDMGWVRQAPGKGLEWVSTIPTTDGSTYYADSVKGRFTISRDNSKSTLYLQMNSLRAEDTAVYYCATGYMWKAPAYVKYWGQGTLVTVSSAAAEQKLISEEDLNSAAHYTDIG
B2: H6: fibrin-specific human sdFv clone from phage biopanning, SEQ ID NO: 1 (protein)
VHH: B1 VH

How the values were obtained:
femoral vein injury = assay: Rat femoral vessel traumatic injury model; type: in vivo
From the text: To test the efficacy of PLPs in hemostasis, a well-established rat femoral vessel traumatic injury model was used^13-15. This model results in an easily visualized, continuous stream of blood flowing from the injury site. All protocols were approved by the Georgia Institute of Technology IACUC. Adult Sprague-Dawley male rats (200-250 g) were anesthetized with 5% isoflurane. Following anesthesia, an incision was made on the right hindlimb to expose the femoral vessels. A portion of the femoral vein was isolated from the surrounding connective tissue by placing a small piece of foil between the vessel and the underlying tissue. Following isolation of the vessel, the cavity will be irrigated with 0.9% irrigation fluid at 37° C. Animals were then administered 500 μL of saline (vehicle), purified human factor VIIa ([…], 100 μg/kg the current standard of care, purchased from Innovative Research), PLPs (20 mg/mL) or S11-ULC microgels (20 mg/mL) via tail vein injection using a 24 gauge catheter. Six (6) animals were tested per condition. Following a 5 minute circulation time, injury was induced to the right femoral vein by piercing the vein with a 22 gauge needle. A gauze was lightly placed below the injury site to collect blood, allowing for better visualization of the injury site as well as measurement of total blood loss. Gauze were changed every ten seconds for the first 30 seconds following injury and then every 30 s until bleeding ceased. Bleeding time was defined as the time required for bleeding to cease for a minimum of 10 s. Following cessation of bleeding, animals were euthanized with carbon dioxide. Following cessation of bleeding, animals were euthanized and organs separated, fixed with 10% formalin, paraffin embedded and 5 μm sections were produced using a Microm […] Microtome (Thermo Scientific). Co-localization of PLPs were characterized through immunofluorescence staining for the MYC-tag encoded on the sdFvs and through Martius Scarlet Blue (MSB) staining for fibrin in adjacent serial sections. For MYC-tag staining, samples were counter stained with Hoescht (Invitrogen) to visualize nuclei. All statistical analyses for bleeding time studies were performed with Prism software program (GraphPad, San Diego Calif.). Bleeding and blood weight data were statistically analyzed using repeated measures analysis of variance using the Tukey test at a 95% confidence interval.

fibrinogen = target: T1, fibrinogen (Homo sapiens, UniProt P02671+P02675+P02679); assay: ELISAs of H6 binding to fibrinogen in various states of unfolding
T1 sequence (P02671 20-629 limits assumed): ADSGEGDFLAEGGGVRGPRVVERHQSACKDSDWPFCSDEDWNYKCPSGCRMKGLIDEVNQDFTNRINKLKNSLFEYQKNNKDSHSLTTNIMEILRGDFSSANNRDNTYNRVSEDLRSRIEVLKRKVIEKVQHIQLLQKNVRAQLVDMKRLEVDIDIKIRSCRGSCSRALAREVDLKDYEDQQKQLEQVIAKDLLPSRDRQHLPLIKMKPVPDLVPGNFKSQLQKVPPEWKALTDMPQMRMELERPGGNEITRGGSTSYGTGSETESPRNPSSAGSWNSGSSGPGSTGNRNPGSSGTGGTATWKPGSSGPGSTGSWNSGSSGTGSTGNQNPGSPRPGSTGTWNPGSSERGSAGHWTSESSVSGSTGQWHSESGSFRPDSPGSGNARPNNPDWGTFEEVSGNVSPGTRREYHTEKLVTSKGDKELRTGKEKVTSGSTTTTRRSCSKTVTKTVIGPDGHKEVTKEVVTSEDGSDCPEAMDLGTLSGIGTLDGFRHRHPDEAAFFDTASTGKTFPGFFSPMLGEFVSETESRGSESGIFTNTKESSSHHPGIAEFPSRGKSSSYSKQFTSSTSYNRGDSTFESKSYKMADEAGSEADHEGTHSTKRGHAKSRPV
T1 sequence (P02675 31-491): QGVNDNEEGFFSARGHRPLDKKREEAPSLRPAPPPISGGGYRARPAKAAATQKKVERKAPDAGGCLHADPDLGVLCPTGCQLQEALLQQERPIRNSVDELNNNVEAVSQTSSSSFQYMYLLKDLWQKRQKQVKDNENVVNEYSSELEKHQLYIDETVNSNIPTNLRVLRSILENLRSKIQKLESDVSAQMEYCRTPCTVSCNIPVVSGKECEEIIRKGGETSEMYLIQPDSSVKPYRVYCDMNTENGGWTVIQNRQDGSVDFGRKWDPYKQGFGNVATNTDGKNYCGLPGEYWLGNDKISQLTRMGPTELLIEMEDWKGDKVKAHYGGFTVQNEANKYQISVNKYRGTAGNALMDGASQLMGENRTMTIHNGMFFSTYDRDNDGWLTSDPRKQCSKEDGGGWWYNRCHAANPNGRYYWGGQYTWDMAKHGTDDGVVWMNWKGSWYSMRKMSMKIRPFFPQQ
T1 sequence (P02679 27-453): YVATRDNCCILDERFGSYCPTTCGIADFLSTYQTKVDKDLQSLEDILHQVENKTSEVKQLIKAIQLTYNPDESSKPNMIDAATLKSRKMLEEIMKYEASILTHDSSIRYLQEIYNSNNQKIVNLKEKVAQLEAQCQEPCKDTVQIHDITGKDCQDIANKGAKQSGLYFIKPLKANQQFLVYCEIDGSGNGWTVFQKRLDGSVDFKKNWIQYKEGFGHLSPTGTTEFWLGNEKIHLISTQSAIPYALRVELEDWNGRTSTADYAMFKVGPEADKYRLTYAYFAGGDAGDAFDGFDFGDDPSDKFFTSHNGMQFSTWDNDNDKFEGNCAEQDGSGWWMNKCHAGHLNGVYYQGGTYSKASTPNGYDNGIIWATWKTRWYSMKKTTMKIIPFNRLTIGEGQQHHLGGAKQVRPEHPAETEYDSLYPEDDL
Method: Characterization of H6 binding to fibrin was determined through a series of experiments designed to test the ability of H6 to bind fibrinogen in various states of unfolding.
In the first experiment ELISAs, as described previously, were performed comparing the ability of H6 to bind fibrinogen that was either passively adsorbed to a glass surface or immobilized to a glass surface, the assumption being that fibrinogen exists in a more unfolded state when adsorbed in comparison to when its immobilized on a surface.
This experiment was repeated comparing the ability of H6 to bind fibrinogen passively adsorbed to a plastic surface after having been heat-denatured, or not, with the assumption being that heat-denatured fibrinogen exists in a more unfolded state than that of fibrinogen that was not heat-denatured.
Finally, this experiment was repeated to compare the ability of H6 to bind fibrinogen that was passively adsorbed after no treatment, heat denaturing, heat denaturing plus reduction of sulfide bonds, or just reduction of sulfide bonds. The assumption is that reduction of sulfide bonds within a fibrinogen molecule in addition to heat denaturing result in an even greater extent of molecular unfolding than compared to heat denaturing alone.

Row | Molecule | total blood loss (femoral vein injury; compared to S11-ULC microgels, p<0.05) | fibrin staining in vessels (femoral vein injury; postmortem) | localization at wound (MYC-tag staining, MSB fibrin staining) (femoral vein injury; postmortem wound tissue) | blood loss over time (bleeding dynamics) (femoral vein injury; rat) | bleeding time compared to vehicle only (femoral vein injury; rat, tail vein injection) | Bleeding time (femoral vein injury; rat, tail vein injection, 5 minute circulation time) [s] | binding to fibrinogen on glass surface (fibrinogen; adsorbed and immobilized fibrinogen) | binding to immobilized versus adsorbed fibrinogen (fibrinogen; glass surface) | binding to fibrinogen adsorbed to plastic surface (fibrinogen; heat-denatured or not) | binding to fibrinogen versus degree of unfolding (fibrinogen; no treatment, heat denaturing, reduction of sulfide bonds, or both) | binding to heat-denatured versus un-denatured fibrinogen (fibrinogen; plastic surface)
1 | B1 | significantly less | higher levels of fibrin staining | co-localization of PLPs with fibrin clots | slowest blood loss over time | significantly decreased | 117 ± 16 | – | – | – | – | –
2 | B2 | – | – | – | – | – | – | weak | dose-dependent decrease in binding | weak binding | positively correlated to the degree of unfolding | dose-dependent enhanced ability
